Test results taken from patent US6514936 (Bayer, dated 2003).

T1: Human rhinovirus serotype 3 (HRV3), purified virion (human rhinovirus serotype 3, UniProt Q82081 562-855; Q82081 70-331; Q82081 332-561; Q82081 2-69)
T1 construct: domain: VP1;domain: VP2;domain: VP3;domain: VP4; also called [35S]-HRV3
T1 sequence 1: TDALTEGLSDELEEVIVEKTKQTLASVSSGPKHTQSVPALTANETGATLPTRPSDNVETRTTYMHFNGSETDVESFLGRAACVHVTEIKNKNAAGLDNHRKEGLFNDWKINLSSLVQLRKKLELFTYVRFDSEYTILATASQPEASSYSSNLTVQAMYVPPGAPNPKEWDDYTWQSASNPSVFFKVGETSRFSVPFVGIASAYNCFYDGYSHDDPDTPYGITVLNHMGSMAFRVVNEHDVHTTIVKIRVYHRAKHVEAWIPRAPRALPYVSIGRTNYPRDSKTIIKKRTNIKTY
T1 sequence 2: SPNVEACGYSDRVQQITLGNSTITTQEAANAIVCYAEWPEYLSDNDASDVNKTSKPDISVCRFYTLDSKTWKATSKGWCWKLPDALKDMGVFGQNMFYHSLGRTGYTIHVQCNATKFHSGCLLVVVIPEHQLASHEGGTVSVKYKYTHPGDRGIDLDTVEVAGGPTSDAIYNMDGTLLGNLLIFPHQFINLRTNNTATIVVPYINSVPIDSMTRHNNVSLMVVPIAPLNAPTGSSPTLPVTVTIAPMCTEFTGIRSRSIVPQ
T1 sequence 3: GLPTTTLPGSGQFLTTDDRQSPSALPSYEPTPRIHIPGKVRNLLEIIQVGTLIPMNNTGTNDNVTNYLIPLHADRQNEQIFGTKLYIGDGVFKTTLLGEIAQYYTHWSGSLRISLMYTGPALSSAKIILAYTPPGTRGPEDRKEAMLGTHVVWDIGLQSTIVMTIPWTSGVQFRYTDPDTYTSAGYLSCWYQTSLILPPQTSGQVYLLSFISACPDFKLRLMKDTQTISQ
T1 sequence 4: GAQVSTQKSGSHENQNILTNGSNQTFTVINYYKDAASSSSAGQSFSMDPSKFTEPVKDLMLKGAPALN

B1: Transmembrane intercellular adhesion molecule-1 (tmICAM-1) (receptor, human, UniProt P05362 28-532, looked up)
chain: QTSVSPSKVILPRGGSVLVTCSTSCDQPKLLGIETPLPKKELLLPGNNRKVYELSNVQEDSQPMCYSNCPDGQSTAKTFLTVYWTPERVELAPLPSWQPVGKNLTLRCQVEGGAPRANLTVVLLRGEKELKREPAVGEPAEVTTTVLVRRDHHGANFSCRTELDLRPQGLELFENTSAPYQLQTFVLPATPPQLVSPRVLEVDTQGTVVCSLDGLFPVSEAQVHLALGDQRLNPTVTYGNDSFSAKASVSVTAEDEGTQRLTCAVILGNQSQETLQTVTIYSFPAPNVILTKPEVSEGTEVTVKCEAHPRAKVTLNGVPAQPLGPRAQLLLKATPEDNGRSFSCSATLEVAGQLIHKNQTRELRVLYGPRLDERDCPGNWTWPENSQQTPMCQAWGNPLPELKCLKDGTFPLPIGESVTVTRDLEGTYLCRARSTQGEVTRKVTVNVLSPRYEIVIITVVAAAVIMGTAGLSTYLYNRQRKIKKYRLQQAQKGTPMKPNTQATPP
notes: mature; also called HRR; human rhinovirus receptor
B2: tICAM(185) (receptor)
chain: QTSVSPSKVILPRGGSVLVTCSTSCDQPKLLGIETPLPKKELLLPGNNRKVYELSNVQEDSQPMCYSNCPDGQSTAKTFLTVYWTPERVELAPLPSWQPVGKNLTLRCQVEGGAPRANLTVVLLRGEKELKREPAVGEPAEVTTTVLVRRDHHGANFSCRTELDLRPQGLELFENTSAPYQLQTF
notes: range 1-185; On the UniProt precursor it is shifted by the length of the signal peptide; also called truncated ICAM, domains I and II; two N-terminal domains of ICAM-1
B3: tICAM(453) (receptor)
chain: QTSVSPSKVILPRGGSVLVTCSTSCDQPKLLGIETPLPKKELLLPGNNRKVYELSNVQEDSQPMCYSNCPDGQSTAKTFLTVYWTPERVELAPLPSWQPVGKNLTLRCQVEGGAPRANLTVVLLRGEKELKREPAVGEPAEVTTTVLVRRDHHGANFSCRTELDLRPQGLELFENTSAPYQLQTFVLPATPPQLVSPRVLEVDTQGTVVCSLDGLFPVSEAQVHLALGDQRLNPTVTYGNDSFSAKASVSVTAEDEGTQRLTCAVILGNQSQETLQTVTIYSFPAPNVILTKPEVSEGTEVTVKCEAHPRAKVTLNGVPAQPLGPRAQLLLKATPEDNGRSFSCSATLEVAGQLIHKNQTRELRVLYGPRLDERDCPGNWTWPENSQQTPMCQAWGNPLPELKCLKDGTFPLPIGESVTVTRDLEGTYLCRARSTQGEVTRKVTVNVLSPRYE
notes: range 1-453; On the UniProt precursor it is shifted by the length of the signal peptide; also called truncated ICAM, domains I-V; entire extracellular domain of ICAM-1

Columns and labels:
[1] = biological target: T1, Human rhinovirus serotype 3 (HRV3), …; test: dot-blot, normalised [35S]-HRV3 binding of immobilised ICAM against that of immobilised tICAM(453)
[2] = biological target: T1, Human rhinovirus serotype 3 (HRV3), …; test: solid-phase competition, soluble ICAM against [35S]-HRV3 binding to ICAM-1-coated plates, 0.1% Triton X-100; average of three experiments ± S.D.
[3] = biological target: T1, Human rhinovirus serotype 3 (HRV3), …; test: pelleting assay, [35S]-cysteine-labelled ICAM mixed with HRV3 and centrifuged; average of 4 experiments
[4] = biological target: T1, Human rhinovirus serotype 3 (HRV3), …; test: solid-phase competition against [35S]-HRV3 binding to ICAM-1-coated plates
[5] = biological target: T1, Human rhinovirus serotype 3 (HRV3), …; test: cell-based or functional assay
[6] = biological target: T1, Human rhinovirus serotype 3 (HRV3), …; test: cell-based or functional assay; remark: listed apart in the source

Binder | ratio ICAM/tICAM (453) [1] | IC50 [2] | % ICAM Pelleted [3] | fold difference of IC50 against tICAM(453) [4] | fold higher IC50 than tmICAM [4] | IC50, neutralization of HRV3 infectivity, Assay I (continuous) [5] | IC50, neutralization of HRV3 infectivity, Assay II (Pretreatment) [5] | IC50, neutralization of HRV3 infectivity, Assay III (high MOI) [5] | neutralization IC50 in Assay III relative to tICAM(185) [6]
B1 | 2.3 | 0.008 µM | 11.6% |  |  |  |  |  | 
B2 |  | 9.7 µM | 4.3% | 3 fold | 1000 fold | 8.2 µM | < 20 µM | 13.2 µM | 
B3 |  | 3.1 µM | 1% |  | 350 fold | 0.38 µM | < 20 µM | 1.2 µM | 11 fold
